Assay results published in paper PMC2132829.

What was measured:
[1] = target: Xmad2 (Xenopus laevis (endogenous in egg extracts)); experiment: co-IP
[2] = target: Xmad1 (Xenopus laevis (endogenous in egg extracts)); experiment: co-IP

| Substance | percent of Xmad1 removed by immunodepletion of Xmad2 [1] [%] | percent of Xmad2 bound with Xmad1 [2] [%] |
| --- | --- | --- |
| Xmad1 (natural protein) | > 95 | – |
| Xmad2 (natural protein) | – | 40 |
